Laboratory results: US10654925B2, “Anti-marinobufagenin antibodies and uses thereof” (priority 2018, dated 2020)

Experiments:
[1] = Competitive ELISA, free CTS competitors overall (summary and footnote); assay type: binding; details: competitors RBG, CINO, OUB, DIG; Table 2
Method: (§1) The specificity (relative affinity) of anti-MBG antibodies for MBG relative to various cardiotonic steroids (CTSs) was determined in a competitive ELISA. Each anti-MBG antibody was tested for its binding to immobilized MBG in the presence of free MBG, resibufogenin (RBG), cinobufagin (CINO), ouabain (OUB) or digoxin (DIG) as a competitor. A constant amount of an anti-MBG antibody (typically 1-5 μg/mL) and varying concentrations of each CTS (from 10^−12M to 10^−5M) were pre-incubated before being added to the MBG-BSA-coated wells. After washing of the wells, an anti-human Fc, HRP-conjugated secondary antibody (at 1:5000 dilution) was added to the wells and incubated at 37° C. for 1 hr. After washing of the wells, an appropriate HRP reagent (e.g., TMB ultra, Thermo Fisher) was added to the wells. OD at 450 nm was measured by a microplate reader. MBG at 10 μM was assumed to be 100% competed, and MBG at 1 pM was assumed to be 0% competed. The data was plotted as a titration of antibody-antigen binding relative to free CTS concentration in the competition reaction to determine the free CTS concentration (μM) giving 50% maximal binding of antibody to immobilized MBG. The relative specificity of an antibody for a CTS was normalized to MBG=100%.

[2] = Competitive ELISA, relative CTS specificity, RBG as competitor; assay type: binding; details: competition with immobilized MBG-BSA; normalized to MBG = 100%
Method: as §1

[3] = Competitive ELISA, relative CTS specificity, OUB as competitor; assay type: binding; details: competition with immobilized MBG-BSA; normalized to MBG = 100%
Method: as §1

[4] = tested on: pregnant Sprague-Dawley rats; test: DOCA/saline rat model of pre-eclampsia; assay type: in vivo; details: tail cuff; baseline; antibodies 2.2 mg/kg/d i.p. days 16-18 in PDS (DOCA/saline) rats; MBG 7.65 μg/kg/d in normal pregnant rats (NPM); N = 10
[5] = Competitive ELISA, relative CTS specificity, free MBG as competitor; assay type: binding; details: competition with immobilized MBG-BSA; normalized to MBG = 100%
Method: as §1

[6] = tested on: pregnant Sprague-Dawley rats; test: DOCA/saline rat model of pre-eclampsia; assay type: in vivo; details: antibodies 2.2 mg/kg/d i.p. days 16-18 in PDS rats
Method: Female Sprague-Dawley rats (200-250 g, Charles River Laboratories) were acclimatized for 1 week, and mated with male Sprague-Dawley rats (275-300 g). Pregnancy was confirmed by the presence of vaginal plugs or by examination of vaginal smears. Each rat was housed separately.
Five groups of rats were studied (n=10 per group): Group 1 (NP): normal pregnant rats; Group 2 (PDS): pregnant rats injected i.p. initially with 12.5 mg of DOCA in a depot form, followed by a weekly i.p. injection of 6.5 mg of DOCA, and whose drinking water is replaced with 0.9% saline; Group 3 (NPM): Normal pregnant rats given daily injections of MBG (7.65 μg per kg body weight per day) once pregnancy was established on day four of the experiment; Group 4 (PDS-3E9): rats administered DOCA and saline as for Group 2, and also given the murine anti-MBG antibody 3E9 (2.2 mg per kg body weight per day) on days 16, 17, and 18 of pregnancy; and Group 5 (PDS-H3L2): rats administered DOCA and saline as for Group 2, and also given the humanized anti-MBG antibody H3L2 (2.2 mg per kg body weight per day) on days 16, 17, and 18 of pregnancy.
Systolic blood pressure (BP) was measured by tail cuff at days 17-19. At least 3 readings are taken after BP has stabilized, and the mean of these values was calculated. The reported BP values are the mean of the daily measurements. At 18-20 days of pregnancy, 24-hour urine was collected in the absence of food to avoid contamination of the measurement of the protein amount in urine by any fallen food particles. Each rat was housed separately in a metabolic cage during this portion of the study. The 24-hour protein excretion was measured and was normalized to creatinine. The rats were sacrificed after the last measurement on days 18-20, and blood samples were taken. The number of fetal pups was counted and examined. The mean number of pups and any developmental or histological abnormalities in the pups were assessed. Statistical analysis was performed using analysis of variance and Tukey's post hoc test. A p value ≤0.05 was considered statistically significant.

[7] = tested on: human umbilical cord venous endothelial cells (HUVEC); test: Reversal of MBG inhibition of HUVEC cell proliferation (3H-thymidine); assay type: cell-based; details: MBG 2 nM, antibody 2.5-10 μg/mL, 48 hr; FIG. 3b
Method: MBG (2 nM) was incubated with an antibody (20 μg/mL in FIG. 3a with human anti-MBG mAbs, or varying concentrations (2.5-10 μg/mL) in FIG. 3b with humanized anti-MBG mAbs) prior to addition to cultured human umbilical cord venous endothelial cells (HUVEC). After 48 hr, DNA synthesis was assessed by incorporation of ^3H-thymidine.
HUVEC cells in endothelial cell growth medium were plated onto 96-well plates. The next day, the cells were pretreated with various antibodies (2.5-20 μg/mL) and then incubated with 2 nM MBG for 48 hr. [^3H]-Thymidine was added to each well. [^3H]-Thymidine-labeled DNA was assayed by harvesting the cells and assaying for ^3H using a PerkinElmer Wallac Tailux liquid scintillation counter. […] Means were tested for significance using Student's t-test.

[8] = ELISA avidity estimate on MBG-KLH; assay type: binding; details: wells coated with 2 μg/ml MBG-KLH; IgG
Method: The avidity of anti-MBG antibodies for MBG was estimated in an ELISA. Wells of a microtiter plate were coated with 2 μg/ml of either MBG-bovine serum albumin (BSA) or MBG-keyhole limpet hemocyanin (KLH). The wells were then blocked with 1% BSA. A test IgG antibody at varying concentrations (typically from about 0.0001 nM to about 25 nM) was added to the wells. The test IgG bound to immobilized MBG was detected with an anti-human Fc, horseradish peroxidase (HRP)-conjugated secondary antibody (Jackson ImmunoResearch). After washing of the wells, an appropriate HRP reagent (e.g., TMB ultra, Thermo Fisher) was added to the wells. Optical density (OD) at 450 nm was measured by a microplate reader. The concentration of test antibody at the midpoint of the binding curve is an estimate of avidity for MBG.

B1: H3L2: humanized anti-MBG antibody, VH H3 (SEQ ID NO: 11) with VL L2 (SEQ ID NO: 13) (antibody, V domains shown)
VH: EVQLQESGPGLVKPSETLSLTCTVSGDSITSGYWNWIRQPPGKGLEYMGYISYSGTTYYNPSLKSRITISRDTSKNQYSLKLSSVTAADTAVYYCARARYGYGFDYWGQGTLVTVSS
VL: DVVMTQSPLSLPVTLGQPASISCRSSQSIVHSNRNTYLEWYQQRPGQSPRLLIYKVSNRFSGVPDRFSGSGSGTDFTLKISRVEAEDVGVYYCFQGSHVPLTFGGGTKVEIK
modifications: Humanized VH sequence; Humanized VL sequence
- reaction with CTS competitor molecules [1]: did not react with any of the CTS competitor molecules
- Rel. CTS Specificity as % of MBG Binding: RBG [2]: 0%
- Rel. CTS Specificity as % of MBG Binding: OUB [3]: 0%
- Blood Pressure-Initial [4]: 104 ± 5 mm Hg
- Rel. CTS Specificity as % of MBG Binding: MBG [5]: 100%
- % Malformed Pups ([6]; MBG 7.65 μg/kg/d in NPM rats): 0%
- No. Pups ([6]; MBG 7.65 μg/kg/d in NPM rats): 12.9 ± 3.2
- Urine Protein ([6]; normalized to creatinine, 18-20 days of pregnancy, MBG 7.65 μg/kg/d in NPM rats): 3.5 ± 0.7 mg/24 h
- Blood Pressure-Final ([6]; tail cuff, 17-19 d of gestation, MBG 7.65 μg/kg/d in normal pregnant rats (NPM), N = 10): 109.4 ± 11 mm Hg
- MBG inhibition of HUVEC cell proliferation, humanized mAbs [7]: significantly reduced
- Estimated avidity (KA) (antibody concentration at 50% maximal binding to antigen, or EC50), Antigen 2 (MBG-KLH) [8]: 1.5 nM
